Measurements: publication PMC5305259 (Molecular Biology of the Cell, 2017)

Biological target: T1, N-terminally tagged GFP cldn2 with the Linker domain between GFP and cldn2 (mouse, UniProt O88552 1-230)
T1 sequence: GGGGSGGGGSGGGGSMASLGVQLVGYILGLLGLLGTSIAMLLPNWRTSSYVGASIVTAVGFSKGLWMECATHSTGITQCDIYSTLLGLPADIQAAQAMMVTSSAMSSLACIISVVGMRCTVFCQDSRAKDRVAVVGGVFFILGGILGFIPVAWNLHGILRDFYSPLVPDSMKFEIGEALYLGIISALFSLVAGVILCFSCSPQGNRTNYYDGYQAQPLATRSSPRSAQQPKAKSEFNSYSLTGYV
Assay: pull-down

fold binding against GFP cldn2 without the linker: ~3 fold
B1: myc-tagged N-terminal half of ZO-1 containing the PDZ domains (ZNA; amino acids 1-887) (domain or fragment, UniProt Q07157 1-887, looked up)
chain: MSARAAAAKSTAMEETAIWEQHTVTLHRAPGFGFGIAISGGRDNPHFQSGETSIVISDVLKGGPAEGQLQENDRVAMVNGVSMDNVEHAFAVQQLRKSGKNAKITIRRKKKVQIPVSRPDPEPVSDNEEDSYDEEIHDPRSGRSGVVNRRSEKIWPRDRSASRERSLSPRSDRRSVASSQPAKPTKVTLVKSRKNEEYGLRLASHIFVKEISQDSLAARDGNIQEGDVVLKINGTVTENMSLTDAKTLIERSKGKLKMVVQRDERATLLNVPDLSDSIHSANASERDDISEIQSLASDHSGRSHDRPPRRSRSRSPDQRSEPSDHSRHSPQQPSNGSLRSRDEERISKPGAVSTPVKHADDHTPKTVEEVTVERNEKQTPSLPEPKPVYAQVGQPDVDLPVSPSDGVLPNSTHEDGILRPSMKLVKFRKGDSVGLRLAGGNDVGIFVAGVLEDSPAAKEGLEEGDQILRVNNVDFTNIIREEAVLFLLDLPKGEEVTILAQKKKDVYRRIVESDVGDSFYIRTHFEYEKESPYGLSFNKGEVFRVVDTLYNGKLGSWLAIRIGKNHKEVERGIIPNKNRAEQLASVQYTLPKTAGGDRADFWRFRGLRSSKRNLRKSREDLSAQPVQTKFPAYERVVLREAGFLRPVTIFGPIADVAREKLAREEPDIYQIAKSEPRDAGTDQRSSGIIRLHTIKQIIDQDKHALLDVTPNAVDRLNYAQWYPIVVFLNPDSKQGVKTMRMRLCPESRKSARKLYERSHKLRKNNHHLFTTTINLNSMNDGWYGALKEAIQQQQNQLVWVSEGKADGATSDDLDLHDDRLSYLSAPGSEYSMYSTDSRHTSDYEDTDTEGGAYTDQELDETLNDEVGTPPESAITRSSEPVREDSSG
